Source: patent US20090029924

Columns and labels:
[1] = target: T1, Pseudomonas exotoxin A (PEx), P11439
T1 chain: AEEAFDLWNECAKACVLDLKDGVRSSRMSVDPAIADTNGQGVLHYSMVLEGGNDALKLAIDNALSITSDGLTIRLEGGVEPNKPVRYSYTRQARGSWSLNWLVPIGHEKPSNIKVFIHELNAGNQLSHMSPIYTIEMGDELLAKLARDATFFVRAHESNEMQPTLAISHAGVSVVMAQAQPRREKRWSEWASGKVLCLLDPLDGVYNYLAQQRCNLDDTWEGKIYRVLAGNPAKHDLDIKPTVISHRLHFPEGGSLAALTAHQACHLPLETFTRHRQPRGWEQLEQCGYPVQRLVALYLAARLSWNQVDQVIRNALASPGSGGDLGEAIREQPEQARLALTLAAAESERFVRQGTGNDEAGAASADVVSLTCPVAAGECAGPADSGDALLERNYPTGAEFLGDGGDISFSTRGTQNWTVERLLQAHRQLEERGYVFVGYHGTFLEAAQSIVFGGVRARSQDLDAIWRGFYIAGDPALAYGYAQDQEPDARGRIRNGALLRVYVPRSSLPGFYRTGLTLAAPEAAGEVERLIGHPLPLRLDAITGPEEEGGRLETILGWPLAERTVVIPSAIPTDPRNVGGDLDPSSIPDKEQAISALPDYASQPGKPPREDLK

[2] = target: recombinant H5 precursor (HA0)
[3] = target: Anthrax Protective Antigen-83 (PA83), P13423
Sequence of Anthrax Protective Antigen-83 (PA83), P13423 (P13423 whole entry, looked up): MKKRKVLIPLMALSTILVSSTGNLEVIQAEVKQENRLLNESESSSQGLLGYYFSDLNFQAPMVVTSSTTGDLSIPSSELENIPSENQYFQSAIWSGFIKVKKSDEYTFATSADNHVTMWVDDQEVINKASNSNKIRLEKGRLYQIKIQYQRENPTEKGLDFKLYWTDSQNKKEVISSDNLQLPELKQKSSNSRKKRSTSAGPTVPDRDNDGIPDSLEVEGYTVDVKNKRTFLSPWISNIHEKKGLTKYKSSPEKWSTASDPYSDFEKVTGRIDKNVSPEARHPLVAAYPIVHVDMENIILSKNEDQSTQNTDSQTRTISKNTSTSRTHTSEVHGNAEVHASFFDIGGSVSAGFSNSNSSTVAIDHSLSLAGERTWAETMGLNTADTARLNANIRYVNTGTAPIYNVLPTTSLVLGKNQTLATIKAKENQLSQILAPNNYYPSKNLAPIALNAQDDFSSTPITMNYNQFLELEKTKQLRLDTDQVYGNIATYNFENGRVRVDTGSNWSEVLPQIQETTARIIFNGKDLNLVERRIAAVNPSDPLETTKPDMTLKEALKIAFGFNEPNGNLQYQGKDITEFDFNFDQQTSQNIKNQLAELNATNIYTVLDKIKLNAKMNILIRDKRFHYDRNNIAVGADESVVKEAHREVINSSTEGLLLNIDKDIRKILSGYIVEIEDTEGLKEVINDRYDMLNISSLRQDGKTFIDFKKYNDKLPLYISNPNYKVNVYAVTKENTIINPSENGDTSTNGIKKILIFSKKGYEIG

B1: Recombinant human PC5/6 (protein)
chain: DYDFSRAQSTYFNDPKWPSMWYMHCSDNTHPCQSDMNIEGAWKRGYTGKNIVVTILDDGIERTHPDLMQNYDALASCDVNGNDLDPMPRYDASNENKHGTRCAGEVAAAANNSHCTVGIAFNAKIGGVRMLDGDVTDMVEAKSVSFNPQHVHIYSASWGPDDDGKTVDGPAPLTRQAFENGVRMGRRGLGSVFVWASGNGGRSKDHCSCDGYTNSIYTISISSTAESGKKPWYLEECSSTLATTYSSGESYDKKIITTDLRQRCTDNHTGTSASAPMAAGIIALALEANPFLTWRDVQHVIVRTSRAGHLNANDWKTNAAGFKVSHLYGFGLMDAEAMVMEAEKWTTVPRQHVCVESTDRQIKTIRPNSAVRSIYKASGCSDNPNRHVNYLEHVVVRITITHPRRGDLAIYLTSPSGTRSQLLANRLFDHSMEGFKNWEFMTIHCWGERAAGDWVLEVYDTPSQLRNFKTPGKLKEWSLVLYGTSVQPYSPTNEFPKVERFRYSRVEDPTDDYGTEDYAGPCDPECSEVGCDGPGPDHCNDCLHYYYKLKNNTRICVSSCPPGHYHADKKRCRKCAPNCESCFGSHGDQCMSCKYGYFLNEETNSCVTHCPDGSYQDTKKNLCRKCSENCKTCTEFHNCTECRDGLSLQGSRCSVSCEDGRYFNGQDCQPCHRFCATCAGAGADGCINCTEGYFMEDGRCVQSCSISYYFDHSSENGYKSCKKCDISCLTCNGPGFKNCTSCPSGYLLDLGMCQMGAICKDATEESWAEGGFCMLVKKNNLCQRKVLQQLCCKTCTFQG
in vitro cleavage at pH 5.5 (Western blot) [1]: readily processed
in vitro cleavage of biotin-labeled substrate (Western blot) [2]: efficiently cleaved

B2: Recombinant rat PACE4 (protein)
chain: QARSDSLYFNDPIWSNMWYMHCADKNSRCRSEMNVQAAWKRGYTGKNVVVTILDDGIERNHPDLAPNYDSYASYDVNGNDYDPSPRYDASNENKHGTRCAGEVAASANNSYCIVGIAYNAKIGGIRMLDGDVTDVVEAKSLGIRPNYIDIYSASWGPDDDGKTVDGPGRLAKQAFEYGIKKGRQGLGSIFVWASGNGGREGDHCSCDGYTNSIYTISVSSTTENGHKPWYLEECASTLATTYSSGAFYERKIVTTDLRQRCTDGHTGTSVSAPMVAGIIALALEANNQLTWRDVQHLLVKTSRPAHLKASDWKVNGAGHKVSHLYGFGLVDAEALVLEARKWTAVPSQHMCVATADKRPRSIPVVQVLRTTALTNACADHSDQRVVYLEHVVVRISISHPRRGDLQIHLISPSGTKSQLLAKRLLDFSNEGFTNWEFMTVHCWGEKAEGEWTLEVQDIPSQVRNPEKQGKLKEWSLILYGTAEHPYRTFSSHQSRSRMLELSVPEQEPLKAEGPPPQAETPEEEEEYTGVCHPECGDKGCDGPSADQCLNCVHFSLGNSKTNRKCVSECPLGYFGDTAARRCRRCHKGCETCTGRSPTQCLSCRRGFYHHQETNTCVTLCPAGLYADESQRLCLRCHPSCQKCVDEPEKSTVCKEGFSLARGSCIPDCEPGTYFDSELIRCGECHHTCRTCVGPSREECIHCAKSFHFQDWKCVPACGEGFYPEEMPGLPHKVCRRCDENCLSCEGSSRNCSRCKAGFTQLGTSCITNHTCSNADETFCEMVKSNRLCERKLFIQFCCRTCLLAG
in vitro cleavage of biotin-labeled substrate (Western blot) [3]: PACE4 and PC7 were less effective
in vitro cleavage of biotin-labeled substrate (Western blot) [2]: other PCs were less efficient

B3: Recombinant human PC4 (protein)
chain: SVVVPTDPWFSKQWYMNSEAQPDLSILQAWSQGLSGQGIVVSVLDDGIEKDHPDLWANYDPLASYDFNDYDPDPQPRYTPSKENRHGTRCAGEVAAMANNGFCGVGVAFNARIGGVRMLDGTITDVIEAQSLSLQPQHIHIYSASWGPEDDGRTVDGPGILTREAFRRGVTKGRGGLGTLFIWASGNGGLHYDNCNCDGYTNSIHTLSVGSTTQQGRVPWYSEACASTLTTTYSSGVATDPQIVTTDLHHGCTDQHTGTSASAPLAAGMIALALEANPFLTWRDMQHLVVRASKPAHLQAEDWRTNGVGRQVSHHYGYGLLDAGLLVDTARTWLPTQPQRKCAVRVQSRPTPILPLIYIRENVSACAGLHNSIRSLEHVQAQLTLSYSRRGDLEISLTSPMGTRSTLVAIRPLDVSTEGYNNWVFMSTHFWDENPQGVWTLGLENKGYYFNTGTLYRYTLLLYGTAEDMTARPTGPQVTSSACVQRDTEGLCQACDGPAYILGQLCLAYCPPRFFNHTRLVTAGPGHTAAPALRVCSSCHASCYTCRGGSPRDCTSCPPSSTLDQQQGSCMGPTTPDSRPRLRAAACPHHRCPAS
in vitro cleavage at pH 5.5 (Western blot) [1]: readily processed
in vitro cleavage of biotin-labeled substrate (Western blot) [2]: other PCs were less efficient

B4: Recombinant human PC7 (protein)
chain: SVHFNDPKYPQQWHLNNRRSPGRDINVTGVWERNVTGRGVTVVVVDDGVEHTIQDIAPNYSPEGSYDLNSNDPDPMPHPDVENGNHHGTRCAGEIAAVPNNSFCAVGVAYGSRIAGIRVLDGPLTDSMEAVAFNKHYQINDIYSCSWGPDDDGKTVDGPHQLGKAALQHGVIAGRQGFGSIFVVASGNGGQHNDNCNYDGYANSIYTVTIGAVDEEGRMPFYAEECASMLAVTFSGGDKMLRSIVTTDWDLQKGTGCTEGHTGTSAAAPLAAGMIALMLQVRPCLTWRDVQHIIVFTATRYEDRRAEWVTNEAGFSHSHQHGFGLLNAWRLVNAAKIWTSVPYLASYVSPVLKENKAIPQSPRSLEVLWNVSRMDLEMSGLKTLEHVAVTVSITHPRRGSLELKLFCPSGMMSLIGAPRSMDSDPNGFNDWTFSTVRCWGERARGTYRLVIRDVGDESFQVGILRQWQLTLYGSVWSAVDIRDRQRLLESAMSGKYLHDDFALPCPPGLKIPEEDGYTITPNTLKT
in vitro cleavage of biotin-labeled substrate (Western blot) [3]: PACE4 and PC7 were less effective
in vitro cleavage of biotin-labeled substrate (Western blot) [2]: other PCs were less efficient
